experiment: yeast display, Sf9 membrane polyspecificity reagent, FACS + sequencing; frameworks hold sequencing errors
Outline: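 After 36–48 hours of galactose induction, yeast (Saccharomyces cerevisiae BJ5465) displaying a synthetic nanobody library were stained at 4 °C for 1 hour with 10% biotinylated, detergent-solubilized Sf9 membrane reagent. Streptavidin microbeads enriched the stained cells before FACS sorting into low and high (top ~1%) gates on anti-HA and streptavidin fluorescence. Each clone's polyreactivity label reflects its gate of origin.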

Row | Sequence | polyreactivity (PSR sort gate)
1 | QVQLVESGGGLVQAGGSLRLSCAASGRTFYLYGMGWYRQAPGKERELVAAITITDSTNYADSVKGRFTISRDNAKNTVYLQMNSLKPEDTAVYYCAKRRYYSTPRWGSSTYDYWGQGTQVTVSS | low polyreactivity
2 | QVQLVESGGGLVQAGVSLRLSCASSGIIFPDYAMGWYRQAPGKERELVAAITRSGGRTFYADSVKGRFTISRDTAKNSVYLQMKSLKPEDTAVYYCAVSYSYLYYYWGQGTQVTVSS | high polyreactivity
3 | QVQLVESGGGLVQAGGSLRLSCAASGRIIWANTMGCYRQAPGKEREFVAAISWSTDSTYYADSVKGRFTISRDNAKNTVYFQMNSLKPEDTAVYYCNARAGYPWGVFYVTYVYWGQGTQVTVSS | low polyreactivity
4 | QVKLVESGGGLVQAGGSLRLSCGASGSTFGAYAMGWYRQAPGKERELVAVINSDGSTNYADSVKGRFTISRDNAKNTVYLQMNSMKPEDTAVYYCAKERTSRGGVPRMNYWGQGTQVTVSS | low polyreactivity
5 | QVQLVESGGGLVQAGGSLPLTCAASGLTFYDYPMGWYRKATVKERELVAAIRRSGTRTYYADSVKGRFTISRDYAKNTVYLQMNSLKPEDTAVYYCNTVRRLKRYSSYGHDYWGQGTQVTVSS | high polyreactivity
6 | QVQLVESGGGLVQAGGSLRLSCAASGRIIFIYAMGWYRQPPGKERELVAGINRTGGSTYYADSVKGRFTISRDNAKNTVYLQMNSLKPEDTAVYYCAAVSYYASDYRYDYWGQGTQVTVSS | low polyreactivity
7 | QVQLVESGGGLVQAGGSLRLSCAASGSIFYINAMGWYRQAPGKERELVAAIRSGGSTNYADSVKGRFTISRDNAKNTVYLQMNSLKPEDTAVYYCNARSRSYVPYYYWGQGTQVTVSS | high polyreactivity
8 | QVQLVETGGGLVQAGGSLRISCAASGGIFVFYAMGWYRQAPGKERELVAAISWSGTSTYYADSVKGGFTISRDNAKYTVYLQMNRLKPEDTAVYYCAALYPYQYVRGGYWGQGTQVTVSS | high polyreactivity
9 | QVQLQESGGGLVQAGGNLRLSCAASGYISRWYGMGWYRQAPGKERELVAGMSPGGSTYYADSVKGRITISRDNAKNTVYLQMNSLKPEDTAVYYCAAQDFQDSIYFYWGQGTQVTVSS | high polyreactivity
10 | QVQLVESGGGLVQAGGSLRLSCAASGSIFLGNAMGWYRQAPGKERELVAAISGGDSTNYADSVKGRFTISRDNAKNTVYLQMNSLKPEDTAVYYCAKDRPQEYDYWGQGTQVTVSS | low polyreactivity
11 | QVQLVESGGRLLQAGGSLRLSCAASGSTISHYAMGWYRQAPGKEWELVATITVTGVRTYYADSVKGRFTISRDNAKNTVYLELNSLKPEDTAVYYCAVRPSTRGAQAQPWMYYWGQGTQVTVSS | low polyreactivity
12 | QVQLEESGGGLVQAGGSLRLSCAASGRIFDDNAMGWYRQAPGKERELVAAISSGDSTKYADSVKGRFTISRDNAKNTVYLQMNSLKPEDTAVYYCAAERNHGLVGSESVGRNDYWGQGTQVTVSS | low polyreactivity
13 | QVQLVESGGGLVQAGGSHRLSCAASGSTFEIYAMGWYRQAPGKERELVAAISSGGSTNYADSVKGRFTISRDNAKNSVYLQMNSLKPEDTAVYYCVYAIQFDYWGQGTQVTVSS | low polyreactivity
14 | QVQLVESGGGLVQAGGSLRLSCAASGIIFWVNAMGWYRQAPGKERELVAAIRSDGSTKYADSVKGRFTISRDNAKNTVYLQMNSLKPEDTALYYCAKRDYSYPWFRDYYYWGQGTQVTVSS | low polyreactivity
15 | QVQLVESGGGLVQAGGSLRLSCAASGLILSSNAMGWYRQAPGKERELVAAITWDGDRTYADSVKGRFTISRDNAKNTVYLQMNSLKPEDTAVYYCAADKQYYWYDWSYVYWGQGTQVTVSS | low polyreactivity
16 | QVQLVESGGGLVQAGGSLRLSCAASGSIIFNNAMGWYRQAPGKERELVAAITTGGSTYYADSVKGRFTISRDNAKNTVYLQMNSLKPEDTAVYYCAAVVVYPYRLGYDYWGQGTQVTVSS | low polyreactivity

Row | Sequence | polyreactivity (PSR sort gate)
17 | QVQLVESGGGLVQAGGSLRLSCAASGRILVPNAMGWYRQAPGKERELVATITSSGSTYADSVKGRFTISRDNAKNTVYLQMNSLKPEDTAVYYCAAKYTGSFINYGLWGTYFEDDYWGQGTQVTVSS | low polyreactivity
18 | QVQLVESGGGLVQAGGSLRLSCAASGSIFNPYAMGWYRQAPGKERELVAAISSTGSTYYADSVKGRFTISRDNAKNTVYLQMNSLKPEDTAVYYCAADWYWYWFSTYDYWGQGTQVTVSS | low polyreactivity
19 | QVQLVESGGGLFQAGGSLRLSCAASGSIFTKYAMGWYRQAPGKERELVAAISQGGASTRYADSVKGRFTISRDNAKKTVYLQMNSLKPEDTAVYYCAAKSRHFWMDYWGQATQVTVSS | high polyreactivity
20 | QVQLVESGGGLVQAGGSLRLRCAASGYTLGPYAMGWYRQAPGKEREEVAALSWGGGRTYYADSVKGRFTISRDNAKNTVYLQMNSLKPEDTAVYYCGAKWSHVRDGPKYDYWGQGTQVTVSS | low polyreactivity
21 | QVQLVESGGGLVQAGGSLRLSCAASGSIFRGYAMGSYRQAPGKERELVATIDSSAGSTYYADSVKGRCTISRDNAKNTVYLQMNSLKPEDTAVYYCATDPYGYYYSGFDYWGQGTQVTVSS | low polyreactivity
22 | QVQLVESGGGLVQAGGSLRLSCAASGITFRNYAMGWYRPAPGKERELVADITTGGSTYADSVKGRFTISRDNAKNTVYLQMISLKPEDTAVYYCAARYFSYYILRRIYPVREDYWGQGTQVTVSS | low polyreactivity
23 | QVQLVESGGGLFQAGGSLRLSCAASGRIYPTYTMGWYRQAPGKERQLVAAINRGGGSTYYADSVKGRFTISRDYAKNTVYLQMICLKPEDTAVYYCNARTYYRSYGYDYWGQGTQVTVSS | low polyreactivity
24 | QVQLVESGGGLVQAGGSLRLSCAASGSTFYVYVMGWYRQAPGKERELVAAISRSGGRTYYADSVKGRFTISRDNAKNTVYLQMNSLKPEDTSGYYCNARGSRRGGPGYEYWGQGTQVTVSS | high polyreactivity
25 | QVQLVESGGGLVQAGGSLRLSCAASGGTFRPNAMGWYRQAPGKERELVAAITRSGGSTYYADSVKGRFTISRDNAKNTVYLQMNSLKPEDTAVYYCARDLRECGQGTQVTVSS | low polyreactivity
26 | QVQLVESGGGLVQAGGSLRLSCAASGSIFQINVMGWYRQAPGKERELVAASYADSVKGRFTISRDNAKNTVYVQMNSLKPEDTAVYYCARTNPAYSIYDYWGQGTQVTVSS | low polyreactivity
27 | QVQLVESGGGLVQAGGSLRLSCAASGSIFTENDMGWYRQAPGKEREMVAAIDWDGGRTYYADSVKGRFTISRDNAKNTVYLQMNSLKPEDTAVYYCNKGRYWSNYFYWPSTHVYWGQGTQVTVSS | high polyreactivity
28 | QVQLVESGGGLVQAGGSLRLSCAASGINFSEYAMGWSRQAPGKERELVAVITSGGSTYYADSVKGRFTISRDNAKNTVYLQMNSLKPEDTAVYYCAARTAYASRYVNVPYYYWGQGTQVTVSS | high polyreactivity
29 | QVQLVESGGGLVQAGGSLRLSCAASGFIFRTYAMGWYRQAPGKERELVAAISGTTGSTYYADSVKGRFTISRDNAKYTVYLQMNSLKPEDTAVYFCAADYYWYIRYDYWGQGTQVTVSS | low polyreactivity
30 | QVQLEESGGGLVQAGGSLRLSCAASGNTFYLYAMGWYRQAPGKERELVASITGGTRTNYADSVKGRFTISRDNAKNTVYLQMNSLKPEDTAVYYCAKTYPRTVGKYLSRGGYYYWGQGTQVTVSS | high polyreactivity
31 | QVQLVESGGGLVQAGGSLRLSCAASGFTLYYSAMGWYRQAPGKERELVAAISYSGGSTYYADSVKGRFTISRDYAKNTVYLHMYSLKPEDTAVSYCAVQFSYGFTGGPIYDYWGQGTQVTVSS | low polyreactivity
32 | QVQLVESGGGLVQAGGSLRLSCAASGLTFPSYAMGWSRQAPGKERELVAAISRRSGSTYYADSVKGRFTICGDNAKYTVYLQMISLKPEDTAVYYCTTRRGERGYWGQGTQVTVSS | high polyreactivity
